This is an account of results in patent US20050037969A1 (ARBOR VITA, published 2005).

T1: GST-KIAA0303 PDZ domain fusion protein (Homo sapiens (Human), UniProt O15021 1138-1228)
T1 construct: also called K303; not shown: glutathione S-transferase encoded by vector pGEX-3X (Pharmacia)
T1 sequence: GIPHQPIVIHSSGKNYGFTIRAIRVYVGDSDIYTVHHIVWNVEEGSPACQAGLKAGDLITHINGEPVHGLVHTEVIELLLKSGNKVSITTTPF

T2: TAX-IP2L PDZ-GST fusion protein (Homo sapiens (Human), UniProt Q8TF64 107-197)
T2 construct: Order of GST and PDZ part and limits not seen in the excerpts
T2 sequence: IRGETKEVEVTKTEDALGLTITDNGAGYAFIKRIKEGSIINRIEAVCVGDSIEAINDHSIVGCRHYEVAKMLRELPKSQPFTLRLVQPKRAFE

T3: GST-AF6 PDZ domain fusion protein (Homo sapiens (Human), UniProt P55196 1001-1093)
T3 construct: also called af-6 protein; not shown: glutathione S-transferase encoded by vector pGEX-3X (Pharmacia)
T3 sequence: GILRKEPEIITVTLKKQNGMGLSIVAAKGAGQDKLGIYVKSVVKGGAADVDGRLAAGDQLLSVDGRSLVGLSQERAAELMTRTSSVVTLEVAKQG

T4: GST-CASK PDZ domain fusion protein (Homo sapiens, UniProt O14936 486-575)
T4 construct: also called Homo sapiens CASK protein
T4 sequence: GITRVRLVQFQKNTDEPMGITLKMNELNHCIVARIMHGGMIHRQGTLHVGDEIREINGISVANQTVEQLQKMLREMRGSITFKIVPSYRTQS

T5: X11β PDZ-GST fusion protein (Rattus norvegicus (Rat), UniProt O35431 560-745)
T5 construct: Order of GST and PDZ part and limits not seen in the excerpts
T5 chain: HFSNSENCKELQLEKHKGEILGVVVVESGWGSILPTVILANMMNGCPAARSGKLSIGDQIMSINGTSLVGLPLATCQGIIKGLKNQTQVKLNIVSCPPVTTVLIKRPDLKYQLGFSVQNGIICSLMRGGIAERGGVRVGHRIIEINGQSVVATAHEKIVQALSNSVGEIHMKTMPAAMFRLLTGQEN

T6: GST-cytohesin binding protein PDZ domain fusion protein (Homo sapiens (Human), UniProt O60759 74-165)
T6 construct: also called CBP; not shown: glutathione S-transferase encoded by vector pGEX-3X (Pharmacia)
T6 sequence: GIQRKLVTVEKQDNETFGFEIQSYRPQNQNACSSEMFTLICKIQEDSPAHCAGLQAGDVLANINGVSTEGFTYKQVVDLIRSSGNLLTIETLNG

T7: ConEn PDZ-GST fusion protein (Homo sapiens (Human), UniProt Q969H4 193-287)
T7 construct: The label ConEn is not explained in the excerpts
T7 sequence: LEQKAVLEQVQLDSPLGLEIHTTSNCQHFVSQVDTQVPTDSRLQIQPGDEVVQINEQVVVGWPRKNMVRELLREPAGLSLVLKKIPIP

T8: MINT3 PDZ-GST fusion protein
T8 construct: Order of GST and PDZ part and limits not seen in the excerpts
T8 chain: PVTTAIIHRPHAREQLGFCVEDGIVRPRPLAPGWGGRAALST

T9: GEF PDZ-GST fusion protein (Homo sapiens (Human), UniProt Q8TEU7 293-400)
T9 construct: The label GEF is not explained in the excerpts
T9 sequence: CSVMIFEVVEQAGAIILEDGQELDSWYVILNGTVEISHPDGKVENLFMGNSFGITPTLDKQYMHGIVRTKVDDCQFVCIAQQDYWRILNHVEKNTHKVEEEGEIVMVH

T10: GST-DLG5 (p-dlg) PDZ domain fusion protein (Human, UniProt Q8TDM6 1343-1583)
T10 construct: also called Human discs large protein p-dlg; not shown: glutathione S-transferase encoded by vector pGEX-3X (Pharmacia)
T10 sequence: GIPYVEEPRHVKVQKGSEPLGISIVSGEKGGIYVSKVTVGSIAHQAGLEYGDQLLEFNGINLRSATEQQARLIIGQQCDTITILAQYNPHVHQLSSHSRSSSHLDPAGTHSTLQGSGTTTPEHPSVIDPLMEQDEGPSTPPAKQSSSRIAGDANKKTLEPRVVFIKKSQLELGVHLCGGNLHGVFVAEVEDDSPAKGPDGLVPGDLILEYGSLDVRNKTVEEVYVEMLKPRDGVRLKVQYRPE

T11: GST-RGS12 PDZ domain fusion protein (human, UniProt O14924 17-85)
T11 construct: also called human regulator of G-protein signalling 12; not shown: glutathione S-transferase encoded by vector pGEX-3X (Pharmacia)
T11 sequence: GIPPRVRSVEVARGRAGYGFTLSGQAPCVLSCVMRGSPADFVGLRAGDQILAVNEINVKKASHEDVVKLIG

T12: GST-TAX-IP40 PDZ domain fusion protein (human, UniProt Q6B4M5 150-252 (rat entry))
T12 construct: also called TAX40; not shown: glutathione S-transferase encoded by vector pGEX-3X (Pharmacia)
T12 sequence: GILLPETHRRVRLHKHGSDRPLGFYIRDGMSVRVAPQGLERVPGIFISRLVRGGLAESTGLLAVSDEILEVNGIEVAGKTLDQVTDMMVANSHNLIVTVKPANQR

T13: KIAA0807 (PDZ domain)-GST fusion protein (human, UniProt Q6P0Q8 1104-1192)
T13 construct: also called K807; KIAA807; not shown: glutathione S-transferase encoded by vector pGEX-3X (Pharmacia)
T13 sequence: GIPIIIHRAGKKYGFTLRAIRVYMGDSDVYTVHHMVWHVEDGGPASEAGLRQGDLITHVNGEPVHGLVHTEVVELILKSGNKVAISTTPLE

T14: K858 PDZ-GST fusion protein (Homo sapiens (Human), UniProt Q8WWI1 1038-1131)
T14 construct: Order of GST and PDZ part and limits not seen in the excerpts
T14 sequence: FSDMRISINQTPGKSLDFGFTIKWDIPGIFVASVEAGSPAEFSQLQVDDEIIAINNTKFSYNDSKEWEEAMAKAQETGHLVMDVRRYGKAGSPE

B1: CD138 C-terminal peptide AA18L, biotinylated (peptide)
peptide: Biotin-PKQANGGAYQKPTKQEEFYA
notes: also called CD138 (syndecan-1); CD138 (syndecan)
B2: CD95 (Fas) C-terminal peptide AA13L, biotinylated (peptide)
peptide: Biotin-KDITSDSENSNFRNEIQSLV
notes: also called CD95 (Apo-1/Fas); AAI3L
B3: CD83 C-terminal peptide AA47L, biotinylated (peptide)
peptide: Biotin-VTSPNKHLGLVTPHKTELV
B4: CD49E C-terminal peptide AA11L, biotinylated (peptide)
peptide: Biotin-PYGTAMEKAQLKPPATSDA
notes: also called CD49E (alpha-4)

Ends that are not written are not given here. * marks the point of attachment. Biotin = O=C1N[C@H]2[C@H](CS[C@H]2CCCCC(=O)*)N1

In the first assay the target is T1, GST-KIAA0303 PDZ domain fusion protein. The assay can be described thus: A/G assays.
In the case of B1, the binding result is “no binding”.
In the case of B2, the binding result was “no binding”.
As for B3, the binding result is on record as “no binding”.
On the same count and under the same terms, the same measure for B4: “no binding”.

For a further assay, the target named is T2, TAX-IP2L PDZ-GST fusion protein. The assay can be described thus: A/G assays.
Turning to B1, the binding result was “no binding”.
The same measure, in the same setting: the same measure for B2: “no binding”; for B3: “no binding”; for B4: “no binding”.

In another assay the target is T3, GST-AF6 PDZ domain fusion protein. The assay is described as follows: A/G assays.
Regarding B1, the binding result is listed as “no binding”.
Take B2: the binding result is listed as “no binding”.
Same read-out and setting: the same measure for B3: “no binding”; for B4: “no binding”.

The next assay has as its target T4, GST-CASK PDZ domain fusion protein. The assay can be described thus: A/G assays.
Regarding B2, the binding result is on record as “no binding”.
On the same count and under the same terms, the same measure for B3: “no binding”; for B4: “no binding”.

In the next assay the target is T5, X11β PDZ-GST fusion protein. The assay is described as follows: A/G assays.
As to B1, the binding result is “no binding”.
Still for that read-out and setting: the same measure for B2: “no binding”; for B3: “no binding”; for B4: “no binding”.

The next assay addresses T6, GST-cytohesin binding protein PDZ …. The assay can be described thus: A/G assays.
B1: the binding result is on record as “no binding”.
Turning to B2, the binding result was “no binding”.
Same read-out and setting: the same measure for B3: “no binding”.
Take B4: the binding result is “no binding”.

In the next assay the target is T15, NSP PDZ-GST fusion protein (Homo sapiens (Human), UniProt Q92743 370-466).
T15 construct: The label NSP is not explained in the excerpts
T15 sequence (Q92743 other isoform, or with tags, fused parts or gaps limits assumed): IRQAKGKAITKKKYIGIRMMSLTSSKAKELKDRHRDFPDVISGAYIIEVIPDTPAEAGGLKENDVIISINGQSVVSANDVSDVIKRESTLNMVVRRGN
The assay can be described thus: A/G assays.
As to B1, the binding result is “no binding”.
The same measure, in the same setting: the same measure for B2: “no binding”.
As for B3, the binding result is given as “no binding”.
Still for that read-out and setting: the same measure for B4: “no binding”.

In the next assay the target is T7, ConEn PDZ-GST fusion protein. The assay is described as follows: A/G assays.
As for B1, the binding result was “no binding”.
On to B2, for which the binding result is reported as “no binding”.
As for B3, the binding result is “no binding”.
Same read-out and setting: the same measure for B4: “no binding”.

The target in the next assay is T8, MINT3 PDZ-GST fusion protein. The assay is described as follows: A/G assays.
As to B1, the binding result is on record as “no binding”.
As to B2, the binding result is given as “no binding”.
For B3, the binding result was “no binding”.
Turning to B4, the binding result is on record as “no binding”.

Another assay deals with T9, GEF PDZ-GST fusion protein. The assay is described as follows: A/G assays.
Take B1: the binding result was “no binding”.
For the molecule B2, the binding result is given as “no binding”.
For B3, the binding result is “no binding”.
The same measure, in the same setting: the same measure for B4: “no binding”.

Another assay has as its target T10, GST-DLG5 (p-dlg) PDZ domain fusion …. The assay can be described thus: A/G assays.
Take B1: the binding result was “no binding”.
Same read-out and setting: the same measure for B2: “no binding”; for B3: “no binding”.
Take B4: the binding result was “no binding”.

For the next assay, the target named is T11, GST-RGS12 PDZ domain fusion protein. The assay can be described thus: A/G assays.
Consider B1, for which the binding result was “no binding”.
With B2, the binding result is reported as “no binding”.
Regarding B3, the binding result is reported as “no binding”.
On the same count and under the same terms, the same measure for B4: “no binding”.

The next assay concerns the target T12, GST-TAX-IP40 PDZ domain fusion protein. The assay can be described thus: A/G assays.
In the case of B1, the binding result is “no binding”.
Still for that read-out and setting: the same measure for B2: “no binding”.
On to B3, for which the binding result was “no binding”.
On the same count and under the same terms, the same measure for B4: “no binding”.

A further assay concerns the target T13, KIAA0807 (PDZ domain)-GST fusion protein. The assay can be described thus: A/G assays.
For the molecule B1, the binding result is reported as “no binding”.
Same read-out and setting: the same measure for B2: “no binding”; for B3: “no binding”; for B4: “no binding”.

The next assay addresses T14, K858 PDZ-GST fusion protein. The assay can be described thus: A/G assays.
In the case of B1, the binding result is on record as “no binding”.
Still for that read-out and setting: the same measure for B2: “no binding”; for B3: “no binding”.
Still for that read-out and setting: the same measure for B4: “no binding”.
